{"source": "paper PMC5548120", "binders": {"B1": {"name": "rat TRPV2 (transient receptor potential vanilloid 2), full-length, with a 1D4-tag, Q9WUD2 1-761 (natural protein)", "chain": "MTSASSPPAFRLETSDGDEEGNAEVNKGKQEPPPMESPFQREDRNSSPQIKVNLNFIKRPPKNTSAPSQQEPDRFDRDRLFSVVSRGVPEELTGLLEYLRWNSKYLTDSAYTEGSTGKTCLMKAVLNLQDGVNACIMPLLQIDKDSGNPKLLVNAQCTDEFYQGHSALHIAIEKRSLQCVKLLVENGADVHLRACGRFFQKHQGTCFYFGELPLSLAACTKQWDVVTYLLENPHQPASLEATDSLGNTVLHALVMIADNSPENSALVIHMYDGLLQMGARLCPTVQLEEISNHQGLTPLKLAAKEGKIEIFRHILQREFSGPYQPLSRKFTEWCYGPVRVSLYDLSSVDSWEKNSVLEIIAFHCKSPNRHRMVVLEPLNKLLQEKWDRLVSRFFFNFACYLVYMFIFTVVAYHQPSLDQPAIPSSKATFGESMLLLGHILILLGGIYLLLGQLWYFWRRRLFIWISFMDSYFEILFLLQALLTVLSQVLRFMETEWYLPLLVLSLVLGWLNLLYYTRGFQHTGIYSVMIQKVILRDLLRFLLVYLVFLFGFAVALVSLSREARSPKAPEDNNSTVTEQPTVGQEEEPAPYRSILDASLELFKFTIGMGELAFQEQLRFRGVVLLLLLAYVLLTYVLLLNMLIALMSETVNHVADNSWSIWKLQKAISVLEMENGYWWCRRKKHREGRLLKVGTRGDGTPDERWCFRVEEVNWAAWEKTLPTLSEDPSGPGITGNKKNPTSKPGKNSASEEDHLPLQVLQSP"}}, "target": "T1, rat TRPV2 (transient receptor potential vanilloid 2), full-length, with a 1D4-tag (rat), Q9WUD2", "T1 chain": "B1 chain", "assay": "SEC + native gel or EMSA", "conditions": "remark: other sources report otherwise", "data": [{"binder": "B1", "values": [{"measurement": "stoichiometry N", "result": 4}]}]}
